# Laboratory results reported in PMC11417369, “DNA sequence and chromatin differentiate sequence-specific transcription factor binding in the human malaria parasite Plasmodium falciparum”.
# T1: HDP1 homeodomain-like (Plasmodium falciparum, UniProt Q8IKH4 2990-3078)
# T1 sequence: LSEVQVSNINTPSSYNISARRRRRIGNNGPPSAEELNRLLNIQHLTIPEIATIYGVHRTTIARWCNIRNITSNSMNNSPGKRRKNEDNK
# T2: SIP2 D1 (Plasmodium falciparum, UniProt C6KSN9 177-235)
# T2 sequence: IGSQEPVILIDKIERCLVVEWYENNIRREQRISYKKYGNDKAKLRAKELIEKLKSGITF
# How the values were obtained:
# HDP1 homeodomain-like = target: T1, HDP1 homeodomain-like; assay: gcPBM; about 25 ug protein; PBS, 1% milk, 0.2 mg/ml BSA, salmon testes DNA, 0.03% Triton X-100; details: tags: N-terminal GST (pGEX-4T-1), kept; chain copies: 2; label: surface-attached array probe
# SIP2 D1 = target: T2, SIP2 D1; assay: as above; details: tags: N-terminal GST (pGEX-4T-1), kept; label: surface-attached array probe
Binder,binding signal (HDP1 homeodomain-like),binding signal (SIP2 D1)
GTGCAC_negctrl_site82 (dsDNA) DNA 1: CTGATATATTATTTATCTGAATATATTAATATGTAT DNA 2: ATACATATTAATATATTCAGATAAATAATATATCAG,"6.08 ln median PBM intensity, better of two orientations","6.78 ln median PBM intensity, better of two orientations"
GTGCAC_negctrl_site204 (dsDNA) DNA 1: TAATATGTTTATGGTAACATACAAAAATGTATATAT DNA 2: ATATATACATTTTTGTATGTTACCATAAACATATTA,"6.05 ln median PBM intensity, better of two orientations","6.79 ln median PBM intensity, better of two orientations"
GTGCAC_negctrl_site735 (dsDNA) DNA 1: AAAATTAATTATTACAAAAATGAAAAGACATATTTT DNA 2: AAAATATGTCTTTTCATTTTTGTAATAATTAATTTT,"5.96 ln median PBM intensity, better of two orientations","6.68 ln median PBM intensity, better of two orientations"
GTGCAC_negctrl_site36 (dsDNA) DNA 1: TTATGTGATAAAAAAAAAATACAACAAAGTTAAATA DNA 2: TATTTAACTTTGTTGTATTTTTTTTTTATCACATAA,"6.32 ln median PBM intensity, better of two orientations","6.76 ln median PBM intensity, better of two orientations"
GTGCAC_negctrl_site533 (dsDNA) DNA 1: AAATTAATAAATATTTTTATAAATTATAATATTAAT DNA 2: ATTAATATTATAATTTATAAAAATATTTATTAATTT,"5.92 ln median PBM intensity, better of two orientations","6.52 ln median PBM intensity, better of two orientations"
GTGCAC_site9562 (dsDNA) DNA 1: ACATTTAAATAATATGTGCACAGCTATATTTTCTTT DNA 2: AAAGAAAATATAGCTGTGCACATATTATTTAAATGT,"10.9 ln median PBM intensity, better of two orientations","9.19 ln median PBM intensity, better of two orientations"
GTGCAC_site10117 (dsDNA) DNA 1: AATAACTATATATGTGTGCACAAAAATTTGACATAA DNA 2: TTATGTCAAATTTTTGTGCACACATATATAGTTATT,"11.2 ln median PBM intensity, better of two orientations","9.72 ln median PBM intensity, better of two orientations"
GTGCAC_site10622 (dsDNA) DNA 1: TATTATTCAAAATTTGTGCACAAAATTAAAGGAACA DNA 2: TGTTCCTTTAATTTTGTGCACAAATTTTGAATAATA,"11.1 ln median PBM intensity, better of two orientations","8.92 ln median PBM intensity, better of two orientations"
GTGCAC_negctrl_site626 (dsDNA) DNA 1: AAAATATAAATATATTTGAACATGGATCAAATGTAA DNA 2: TTACATTTGATCCATGTTCAAATATATTTATATTTT,"6.08 ln median PBM intensity, better of two orientations","6.71 ln median PBM intensity, better of two orientations"
GTGCAC_negctrl_site503 (dsDNA) DNA 1: AAACAAAAGTAGAAGGTAGAGTATTTTATATTTAAA DNA 2: TTTAAATATAAAATACTCTACCTTCTACTTTTGTTT,"6.07 ln median PBM intensity, better of two orientations","6.67 ln median PBM intensity, better of two orientations"
GTGCAC_site10365 (dsDNA) DNA 1: TTTCAATTTATCAGTGTGCACAAAAATAAAATAAAA DNA 2: TTTTATTTTATTTTTGTGCACACTGATAAATTGAAA,"11.4 ln median PBM intensity, better of two orientations","10.1 ln median PBM intensity, better of two orientations"
GTGCAC_site9580 (dsDNA) DNA 1: ATTTTTATTTTTTTTGTGCACATTTTCATTTTCTAT DNA 2: ATAGAAAATGAAAATGTGCACAAAAAAAATAAAAAT,"11.3 ln median PBM intensity, better of two orientations","9.53 ln median PBM intensity, better of two orientations"
GTGCAC_negctrl_site402 (dsDNA) DNA 1: AAAAAAAAAATACAACAAAGTTAAATAAATAAATAA DNA 2: TTATTTATTTATTTAACTTTGTTGTATTTTTTTTTT,"6.34 ln median PBM intensity, better of two orientations","6.65 ln median PBM intensity, better of two orientations"
GTGCAC_negctrl_site132 (dsDNA) DNA 1: AAAGTAACACACTAATATTTTAACAAATAATATATA DNA 2: TATATATTATTTGTTAAAATATTAGTGTGTTACTTT,"6.15 ln median PBM intensity, better of two orientations","6.76 ln median PBM intensity, better of two orientations"
GTGCAC_negctrl_site440 (dsDNA) DNA 1: TTTTTTATTCCATAATATAATATGTTTTGAAATTTG DNA 2: CAAATTTCAAAACATATTATATTATGGAATAAAAAA,"6.16 ln median PBM intensity, better of two orientations","6.8 ln median PBM intensity, better of two orientations"
GTGCAC_site9953 (dsDNA) DNA 1: ATATATCTTTATATAGTGCATTAAATATGTTGTAAT DNA 2: ATTACAACATATTTAATGCACTATATAAAGATATAT,"8.99 ln median PBM intensity, better of two orientations","8.47 ln median PBM intensity, better of two orientations"
GTGCAC_negctrl_site521 (dsDNA) DNA 1: AGTGGAATGTATGATTTTCATTCCTTAAAATTTTAA DNA 2: TTAAAATTTTAAGGAATGAAAATCATACATTCCACT,"5.94 ln median PBM intensity, better of two orientations","6.55 ln median PBM intensity, better of two orientations"

Binder,binding signal (HDP1 homeodomain-like),binding signal (SIP2 D1)
GTGCAC_negctrl_site266 (dsDNA) DNA 1: AATCAATATAAATAAAATTTTTAATTTTAACCCTAA DNA 2: TTAGGGTTAAAATTAAAAATTTTATTTATATTGATT,"6.24 ln median PBM intensity, better of two orientations","6.64 ln median PBM intensity, better of two orientations"
GTGCAC_negctrl_site348 (dsDNA) DNA 1: AAAATAAAAGAATAAAAATATGAAACTTTTTTAAAA DNA 2: TTTTAAAAAAGTTTCATATTTTTATTCTTTTATTTT,"5.89 ln median PBM intensity, better of two orientations","6.41 ln median PBM intensity, better of two orientations"
GTGCAC_site9510 (dsDNA) DNA 1: TGTTTATTTATTTGTGTGCACTCAGATTATATTATA DNA 2: TATAATATAATCTGAGTGCACACAAATAAATAAACA,"11.3 ln median PBM intensity, better of two orientations","10.1 ln median PBM intensity, better of two orientations"
GTGCAC_negctrl_site376 (dsDNA) DNA 1: AACAGAATAATACTAAATGAACGATTTCTCTTTATG DNA 2: CATAAAGAGAAATCGTTCATTTAGTATTATTCTGTT,"5.96 ln median PBM intensity, better of two orientations","6.78 ln median PBM intensity, better of two orientations"
GTGCAC_negctrl_site310 (dsDNA) DNA 1: TTACTAAAAATTATTAATAAATAATAATTATAAATT DNA 2: AATTTATAATTATTATTTATTAATAATTTTTAGTAA,"5.75 ln median PBM intensity, better of two orientations","6.58 ln median PBM intensity, better of two orientations"
GTGCAC_negctrl_site199 (dsDNA) DNA 1: AAAATTATATTTTATAGAAATTTAAATAAATATATA DNA 2: TATATATTTATTTAAATTTCTATAAAATATAATTTT,"6 ln median PBM intensity, better of two orientations","6.79 ln median PBM intensity, better of two orientations"
GTGCAC_site10721 (dsDNA) DNA 1: ATATTATATCTAATCGTGCACAACTGTACATTTGTC DNA 2: GACAAATGTACAGTTGTGCACGATTAGATATAATAT,"9.73 ln median PBM intensity, better of two orientations","9.08 ln median PBM intensity, better of two orientations"
GTGCAC_site10773 (dsDNA) DNA 1: TATATATATATAATTGTGCACATAATTTTAAACCAA DNA 2: TTGGTTTAAAATTATGTGCACAATTATATATATATA,"11.1 ln median PBM intensity, better of two orientations","9.89 ln median PBM intensity, better of two orientations"
GTGCAC_site10129 (dsDNA) DNA 1: GCATATGTATATAATGTGCACATGGATTATATAAAA DNA 2: TTTTATATAATCCATGTGCACATTATATACATATGC,"11.2 ln median PBM intensity, better of two orientations","9.12 ln median PBM intensity, better of two orientations"
GTGCAC_negctrl_site610 (dsDNA) DNA 1: AATATATGGTTTCATGATATAAAATTCAATTTAATG DNA 2: CATTAAATTGAATTTTATATCATGAAACCATATATT,"6.09 ln median PBM intensity, better of two orientations","6.78 ln median PBM intensity, better of two orientations"
GTGCAC_negctrl_site428 (dsDNA) DNA 1: AATATATGTATATATTTTTTTTTTTCCCTTACAAAT DNA 2: ATTTGTAAGGGAAAAAAAAAAATATATACATATATT,"6.17 ln median PBM intensity, better of two orientations","6.66 ln median PBM intensity, better of two orientations"
GTGCAC_site9776 (dsDNA) DNA 1: TTTATATATTTTGTCGTGCACATTTGGAAAATTACA DNA 2: TGTAATTTTCCAAATGTGCACGACAAAATATATAAA,"8.92 ln median PBM intensity, better of two orientations","9.81 ln median PBM intensity, better of two orientations"
GTGCAC_site10155 (dsDNA) DNA 1: TTGATAAAATCACTGGTGCATGTAGATATATAATAT DNA 2: ATATTATATATCTACATGCACCAGTGATTTTATCAA,"9.06 ln median PBM intensity, better of two orientations","9.7 ln median PBM intensity, better of two orientations"
GTGCAC_negctrl_site724 (dsDNA) DNA 1: TCCTCAAAAAAATAAAATAATTTATACTTTTTTAAA DNA 2: TTTAAAAAAGTATAAATTATTTTATTTTTTTGAGGA,"6.01 ln median PBM intensity, better of two orientations","6.79 ln median PBM intensity, better of two orientations"
GTGCAC_negctrl_site636 (dsDNA) DNA 1: TTTTGTTGAAAAAAAAAAAAAAAATTAAATTAAATT DNA 2: AATTTAATTTAATTTTTTTTTTTTTTTTCAACAAAA,"5.87 ln median PBM intensity, better of two orientations","6.63 ln median PBM intensity, better of two orientations"
GTGCAC_negctrl_site259 (dsDNA) DNA 1: TATTTACAACAAATTTAATTATTTTTAACTTATAAA DNA 2: TTTATAAGTTAAAAATAATTAAATTTGTTGTAAATA,"6.18 ln median PBM intensity, better of two orientations","6.7 ln median PBM intensity, better of two orientations"
GTGCAC_site10686 (dsDNA) DNA 1: TATCCATTTCTTTATGTGCACATTAAATATATTTGT DNA 2: ACAAATATATTTAATGTGCACATAAAGAAATGGATA,"11.4 ln median PBM intensity, better of two orientations","8.89 ln median PBM intensity, better of two orientations"
